Assay results reported in patent US20160053277A1, “Compositions Having Dicamba Decarboxylase Activity and Methods of Use” (PIONEER HI-BRED INTERNATIONAL, INC., priority 2013, published 2016).

How the values were obtained:
[1] = Saturation mutagenesis of SEQ ID NO:109: dicamba decarboxylation activity of point mutants (carbon dioxide released); details: decarboxylation activity (carbon dioxide released) of point mutant compared with unmutated backbone protein; backbone SEQ ID NO: 109
[2] = 14C assay with IPTG-induced recombinant E. coli cells: 14CO2 captured from [14C]-carboxyl-labeled dicamba; details: for Enzymatic Detection level: dicamba decarboxylation activity of the protein of the given SEQ ID NO, High / Low / No; for Dicamba Decarboxylase Activity: induced recombinant E. coli cells, [14C]-carboxyl-labeled dicamba, 14CO2 capture

| Molecule | Fold Activity [1] | Enzymatic Detection level [2] | Dicamba Decarboxylase Activity [2] |
| --- | --- | --- | --- |
| 99 (protein, listed as Ralstonia solanacearum) MAIIDCHGHFTTAPTALEDWRKRQIANLATPALGPSPDDLKISDDALTEAIRANQLRLMQARGSDLTIFSPRASFMAHHIGDFHTSATWAAICNALCHRVSQLFPDHFVGAAMLPQSPGVDIRTCIPELARCIVDYGFVGVNLNPDPSGGHWTSPPLSDPYWFPLYEKLVEYDVPAMIHVSTSCNACFHTTGAHYLNADTTAFMQVLTSDLFRRFPTLKFVIPHGGGAVPYHWGRFRGLAQELKTPPLQEHLLHNVFFDTCVYHQPGIDLLTRVIPVDNILFASEMIGAVRGIDPETGHPFDDTRRYIDQAHTLSAEDRHKIYEGNARRVYPRLDARLKARGR | 1.7 | No | No |
| 94 (protein, listed as Bacillus thuringiensis) MANRGDSNMKSLVGVIMGSTSDWETMKYACDILDELNIPYEKKVVSAHRTPDYMFEYAETARERGLKVIIAGAGGAAHLPGMVAAKTNLPVIGVPVQSKALNGLDSLLSIVQMPGGVPVATVAIGKAGSTNAGLLAAQILGSFHDDIHDALELRREAIEKDVREGSELV | 1.5 | No | No |
| 96 (protein, Aspergillus nidulans) MAPLIVDVHTHVYPPAYMQMLRSRKTVPYVHDPSNNRDPRLIILSSDDDASIPLDQRGRPVDSSYWDINVKLSFMRQHGINCSVISLANPWLDFVEPAEAQMWAERINDDLEKTCATVNKAADPGNTLTLDQKETLFAFGALPLSAPSSESVVAEIKRLKTLEHLRGVIMGTSGLGKGLDDARLDPVWEALQETDMLMFLHPHYGLPEEAYGGPETTGRYGHVLPLALGFPLETTIAVTRMLLSGVFDRFPRLKILLAHSGGTLPFLAGRIESCILHERKFISGGGDVQGPQRSVWDVLKTNIYLDAVVYGKPGLEAAMTASGSDRLLFGTDHPFFPPLDSKDNSWPSVTTNYQAIHATFDTNSKTVADVLGGNAARILNLK | 1.1 | No | No |
| 93 (protein, listed as Mucilaginibacter paludis) MAKYGKHITINKNMRIVTLEEHISFPEMADQIPKAALGSFGRSEAMQRIAPKLADITGERLKSMDANGISMQVLSVDSSGVNLLSPQQGPAFATQYNDLIANRIAGFEKRFTAFAHLPMTAPFAAADELERAVKEHHFCGAMIRGLTGDQFLDHPQFAPIFERAQKLDVPIYLHPGLPPKGVADIYYSGLPNYSGMAEALACYGWGWHSETALHVLRLLFSGIFDQYPKLKLVIGHMGEMLPMMMARSEKAFKPGNGGANVRTLTDTFRSQVYLTTSGFFTQPPLKIALDTFGIDHVMFSVDYPFSTNEMGIEFLNEIDLPDEEVARIAHGNADKLLNLKA | 1.6 | Low | Low |
| 97 (protein, listed as Sphingobium sp.) MAMMIIDCHGHYTVLPKAHDEWREQQKAAFKAGQPAPPYPEISDDEIRETIEANQLRLIKERGADMTIFSPRASAMAPHVGDQSVAVPWAQACNNLIARVVDLFPETFAGVCMLPQSPEADMTSSIAELERCVNELGFIGCNLNPDPGGGHFKHPPLTDRFWYPFYEKMVELDVPAMIHVSGSCNPAMHATGAYYLAADTIAFMQLLQGNLFADFPTLRFIIPHGGGAVPYHWGRFRGLADMLKQPSLDTLLMNNVFFDTCVYHQPGINLLADVIDNKNILFGSEMVGAVRGIDPTTGHYFDDTKRYIDALDISDQERHAIFEGNTRRVFPRLDAKLKARGL | 2.9 | No | No |
| 98 (protein, Xanthomonas campestris pv.) MAIIDCHGHYTTAPAAHDAFRKAQIAHHDDPQQPAPQYPHISDDALRESIEQHQLRLLRERGADMTIFSPRASTMAHHIGNEAVSQVWTQRCNDLIARVVQLYPHTFIGVCQLPQSPGVPISHSIAELERCVNELGFVGCNLNPDPSGGHWNGVPLTDRAWYPFFEKMVELDVPAMVHVSGSCNANFHATGAHYLNADTTAFMQFLEGDLFRDFPSLRFIIPHGGGAVPYHWGRFRGLADMLGKPPLATHVMRNVFFDTCVYHQPGIDLLFEVIDIDNILFGSEMVGAVRGIDPQTGHYFDDTKRYIDALTISDADKRKVFEGNARRVYPRLDAQLRARGL | 2.3 | No | No |
